Tests used:
[1] = biological target: T1, ACE2-Ig (extracellular domain of human ACE2 linked to the Fc domain of human IgG1) (human, UniProt Q9BYF1 18-740); test: SPR
[2] = biological target: T1, ACE2-Ig (extracellular domain of human …); test: SPR; remark: listed apart in the source

T1 sequence (Q9BYF1 18-740): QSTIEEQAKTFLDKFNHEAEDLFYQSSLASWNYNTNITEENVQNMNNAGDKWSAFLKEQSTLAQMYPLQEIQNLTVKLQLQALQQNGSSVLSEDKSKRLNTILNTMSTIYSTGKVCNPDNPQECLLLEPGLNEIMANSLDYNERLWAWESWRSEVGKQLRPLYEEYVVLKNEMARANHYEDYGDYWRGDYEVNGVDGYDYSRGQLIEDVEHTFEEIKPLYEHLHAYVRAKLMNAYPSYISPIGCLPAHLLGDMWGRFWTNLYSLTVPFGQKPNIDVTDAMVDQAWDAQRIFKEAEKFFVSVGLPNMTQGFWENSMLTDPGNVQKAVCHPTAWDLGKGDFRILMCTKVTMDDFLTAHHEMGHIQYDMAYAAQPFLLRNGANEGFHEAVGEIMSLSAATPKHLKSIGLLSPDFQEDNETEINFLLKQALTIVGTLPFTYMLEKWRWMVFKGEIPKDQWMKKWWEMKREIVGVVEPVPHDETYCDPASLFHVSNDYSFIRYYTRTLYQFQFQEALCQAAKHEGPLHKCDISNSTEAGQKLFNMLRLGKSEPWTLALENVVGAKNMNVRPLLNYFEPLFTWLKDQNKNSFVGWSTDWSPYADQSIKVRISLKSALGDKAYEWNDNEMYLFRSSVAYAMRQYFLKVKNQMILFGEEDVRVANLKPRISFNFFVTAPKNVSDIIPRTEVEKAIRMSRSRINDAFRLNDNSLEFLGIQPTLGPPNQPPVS

B1: SARS-CoV S protein (natural protein)
chain: not shown
koff [1]: 0.00294 s⁻¹
Kd [2]: 177 nM

Reference: paper PMC7265355 (2020)
